Results on 27 sequences are retold here after the domain aggregation screens of Martell et al. (2025).

The nature of this data set: soluble fraction after stress (log2 fold change); higher = more stays soluble; pooled small domains, quantitative proteomics. To be noted: stress: pH 4. The essentials: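 With high-throughput quantitative proteomics, pooled custom libraries of small protein domains were measured after pH 4 stress. Each domain's soluble amount after the stress gives a fold change taken as aggregation propensity. Higher log2 values mean more of the domain stayed soluble.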
For “HMGDADDLTRIKGIGPKLSKTLNELGIYHFRQIAGWQSDEADWVDDYLSFKGRVMREQWIEQAQKFAS”, the “soluble fraction (log2)” value is -0.292. In the case of “HMGDAIPVPDVSGFSEDQAMNNLRKVGLRPKATYVADDNTAKGYVTGTSPAKNIEVAPDSEVIVYVSSGP” it was 0.241; in that of “HMGDAPLITVDKRTIKVNGAKAQIQVYDTTGRLVKNVSPAGKLTLIEMAKPGIFIVHTQSMSFKVVL”, 0.00664. In the case of “HMGDAVYSKVKDLVNTYNALAKQTGKSDLVSISQSRTWMVNDTKAHEVQWNKIGITIEDDQTLTI”, the “soluble fraction (log2)” value is -0.13. Under “HMGDLDLVTFGQRLRHLRRSRNMTLSELGERVGRAPSQLSLLENGKREPKLSLLTALAKALDVSVEEL” stands 0.178. Under “HMGDLVKGKVVGYDPDNVIVDIGAKTNALVPNREAVVEAGDDIKETLKKGNEYEFLIIRDEDEEGEFL” stands 0.0813; under “HMGDPEYFKKQLGDFMDRFNITSEDIKNLSIAGAINRMMNNAEGEDKTVLSKLLETVNKSGVGNLPAKTI”, -0.144.

For “HMGDPVRVDKFLHDMNVGTRSQIRKLIKEKAVFVNDVVAKSGRVKVDPVVDQVRLGEQVITYQ”, the “soluble fraction (log2)” value is 0.0055. For “HMGDPYAILGLLPGASMEDVRHAWRRQAAENHPDRMLQRGAPPEFVEIAREKTAAINAAYARIREELSI”, the “soluble fraction (log2)” value is -0.638. Take “HMGDTIGEQKAKEIALEHAGLKSSDVTFIRAVLEYDDRNWEYDVEFYDADTYTEYDYEIDAHTGKILSFDH”: the “soluble fraction (log2)” value is -0.171.

As for “HMGDTPVDFSEFIRWVDTGVVDRVELTGNEIVGTSSSGERFSTYAPPQYEGLGNKLIERDIVVVATAA”, the “soluble fraction (log2)” value is -1.21. Under “HMGDTVSGTMLNLKPGVRVVHQIFGPGRVEETTGASLAEFRVTVRFEQKGLKTLLLQYAALQVINSEN” stands -1.05; under “HMGDVKLNAIYNFLKEFSALNGFPPSVREIGAKFGIKSTSTVHYYLEKLKQSGVIQQEENKKRAVVIN”, -0.446; under “HMGDWEDFWEKEARRRKLSLDYQVVRSLSRWSREYDWGEEDVEQFLSQFPEGETVKMEDVELYFE”, -1.41. Under “HMGDYDHYVVKVEDTLLNWLVTNVTTMSRNKLKDILAGQGIKVNGKITTKYDYPLTPGMKIAISKTKR” stands -0.351; under “HMGEAIPVPDIRHKSQADAERLLQDQGLAMMVTDTGYVKTLPANYILEQIPVAGEKVKSGHVVYVIINSG”, 0.0317; under “HMGEGIRIDSTAVVQVGEKMYAYLGGDGFSKEFWTNLPASGELAVTLKFEPIPMDAESLDFYEMPA”, 0.154. “HMGEILYSGVLKGGDGPEATKLALEKFLGEANTQVAGRIGVQPETQVIWLSREAVDSAASTLSQHKGNMYV”: the “soluble fraction (log2)” value is -0.0574. Under “HMGELDFYEEMRDDYLTGKIWNVGEIVEAKGMIGEIVRKGTNYISFVTDDNKVHKAWLHEIKL” stands -1.37; under “HMGELRAPLPGVIVSIPVKEGDEVKAGQAILIIEAMKMESEISSPIDAKVAKIVVKERVLVQEGDILIILE”, -0.876. In the case of “HMGEMTDFETLRDMYLTGQIWNIDDLIEANGVEGRIVRRGTNYIAFNDRDGKVHKAWLHEVTINE” it was -1.39; in that of “HMGENTIFSGVLGEGRLDSALAHALPQFSRARIQGLIAEDAVLIAGKATNDAASKKFAGQSFELSVPAPRP”, 0.0263; in that of “HMGEPQAWNELIGNLLRQWEARQTGWTPARKREALDRVLGAADPAALYTRLQGLLKSWTQAMTDADA”, -0.956.

As to “HMGEQETILKGDVNRDGVVDVNDVTHLQIHISNDDKNPLIDVTNKAWFDAADMYGDGKLDILDATALQIYI”, the “soluble fraction (log2)” value was -0.145. Under “HMGERVDGVVKFFNGQKGFGFIQREDGGPDAFVHISAVERAGMAGLDEGQRVSFELELDRRGKQAAINLTP” stands -0.192; under “HMGESYGPVRRGETLWSIAEKVKPAGVSTQKELAAIYAANPQAFIRGDINLLKAGAELRLPSPEAL”, -0.0107; under “HMGESYQIKDGELLVDIAQRVKPAGMTLRQTINALVAANPRAFRNGNPDLMYRGATLTIPDGDTLRRLAH”, 0.0238.
